Consider five molecules from patent US20240016952A1 (published 2024).

Experiment [1] has as its target T1, cynomolgus monkey transferrin receptor 1 (cTfR1) (cynomolgus monkey (Macaca fascicularis), UniProt Q5RDH6 89-760 (Pongo abelii entry), limits assumed).
T1 construct: Recombinant cynomolgus TfR1; also called cyTfR1; cyno TfR1
T1 chain: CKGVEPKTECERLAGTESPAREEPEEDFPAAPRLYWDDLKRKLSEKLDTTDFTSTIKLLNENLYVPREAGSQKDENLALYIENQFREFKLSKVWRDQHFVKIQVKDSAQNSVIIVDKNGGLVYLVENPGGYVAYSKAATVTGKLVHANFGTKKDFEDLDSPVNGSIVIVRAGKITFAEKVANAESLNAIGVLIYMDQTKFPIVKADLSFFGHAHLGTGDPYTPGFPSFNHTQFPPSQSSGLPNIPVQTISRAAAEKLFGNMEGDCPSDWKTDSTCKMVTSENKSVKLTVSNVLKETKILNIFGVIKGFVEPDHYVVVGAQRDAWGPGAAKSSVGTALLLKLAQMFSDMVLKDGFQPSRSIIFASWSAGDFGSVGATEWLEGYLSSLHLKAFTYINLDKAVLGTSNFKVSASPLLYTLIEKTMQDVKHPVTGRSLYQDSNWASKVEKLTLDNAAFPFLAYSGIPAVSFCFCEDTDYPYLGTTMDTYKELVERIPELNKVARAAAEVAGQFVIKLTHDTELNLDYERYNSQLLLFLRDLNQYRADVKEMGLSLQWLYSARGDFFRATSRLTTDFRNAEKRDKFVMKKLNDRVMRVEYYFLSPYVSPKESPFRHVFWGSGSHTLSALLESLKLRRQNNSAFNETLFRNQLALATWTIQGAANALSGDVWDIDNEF
Nature of the experiment: average KD, antibody alone; method not given.

Experiment [2] has as its target T2, human transferrin receptor 1 (hTfR1) (human, UniProt P02786 89-760).
T2 construct: Recombinant human TfR1; also called huTfR1; Human TfR1
In words: Carterra LSA SPR, IgG captured on anti-IgG chip, hTfR1 injected, 25 C, 1:1 fit.

Experiment [3] deals with T2, human transferrin receptor 1 (hTfR1). In words: average KD, antibody alone; method not given.
The target in experiment [4] is T3, TfR1 (species not stated; Biacore analyses of Table 14 and Table 16) (Homo sapiens (Human), UniProt P02786 89-760).
T3 construct: also called target antigen
Nature of the experiment: Biacore kinetic analysis. Further details: unit not given here. For orientation: SPR reads the build-up and loss of mass on a sensor chip optically.

The target in experiment [5] is T1, cynomolgus monkey transferrin receptor …. In words: ELISA, cyno TfR1, Fab after 9 days at 40 C. Background: An ELISA detects its analyte on a solid surface through an enzyme-linked reagent.
The target is the same in experiment [6]. Nature of the experiment: ELISA, cyno TfR1, Fab, day 0 of thermal stability test.
Experiment [7] has the same target. In words: ELISA on plate-coated cyno TfR1, unconjugated Fab.
Experiment [8] shares this target. Nature of the experiment: surface plasmon resonance.

B1: 5-H12 mouse monoclonal anti-TfR1 antibody (antibody, V domains shown)
VH: QIQLQQSGPELVRPGASVKISCKASGYSFTDYCINWVNQRPGQGLEWIGWIYPGSGNTRYSERFKGKATLTVDTSSNTAYMQLSSLTSEDSAVYFCAREDYYPYHGMDYWGQGTSVTVSS
VL: DIVLTQSPTSLAVSLGQRATISCRASESVDGYDNSFMHWYQQKPGQPPKLLIFRASNLESGIPARFSGSGSRTDFTLTINPVEAADVATYYCQQSSEDPWTFGGGTKLEIK
notes: Mouse mAb (IgG)
In experiment [1], B1 yielded a Kd of 12 nM.

B2: 15G11 (control anti-TfR1 antibody) (antibody, V domains shown)
VH: QVQLQQPGAELVKPGASVKLSCKASGYTFTSYWMHWVKQRPGQGLEWIGEINPTNGRTNYIEKFKSKATLTVDKSSSTAYMQLSSLTSEDSAVYYCARGTRAYHYWGQGTSVTVSS
VL: DIQMTQSPASLSVSVGETVTITCRASDNLYSNLAWYQQKQGKSPQLLVYDATNLADGVPSRFSGSGSGTQYSLKINSLQSEDFGTYYCQHFWGTPLTFGAGTKLELK
B2: the Kd in experiment [2] was 0.283 nM; in experiment [1], 1 nM; in experiment [3] it was 0.8 nM.

B3: humanized anti-TfR Fab 3A4 VH3 (N54S)/Vk4 (Fab, V domains shown)
VH: EVQLVQSGSELKKPGASVKVSCTASGFNIKDDYMYWVRQPPGKGLEWIGWIDPESGDTEYASKFQDRVTVTADTSTNTAYMELSSLRSEDTAVYYCTLWLRRGLDYWGQGTLVTVSS
VL: DIVMTQSPLSLPVTPGEPASISCRSSKSLLHSNGYTYLFWFQQRPGQSPRLLIYRMSNLASGVPDRFSGSGSGTDFTLKISRVEAEDVGVYYCMQHLEYPFTFGGGTKVEIKR
B3 displayed a koff in experiment [4] of 65.6. Moreover, the “Binding affinity cyno TfR1 d 9” value in experiment [5] stood at 248 nM. The “Binding affinity cyno TfR1 d 0” value in experiment [6] worked out at 398 nM. For the same molecule, the “Fab binding affinity ELISA” value in experiment [7] amounted to 398 nM.

B4: humanized anti-TfR Fab 3A4 VH3/Vk4 (Fab, V domains shown)
VH: EVQLVQSGSELKKPGASVKVSCTASGFNIKDDYMYWVRQPPGKGLEWIGWIDPENGDTEYASKFQDRVTVTADTSTNTAYMELSSLRSEDTAVYYCTLWLRRGLDYWGQGTLVTVSS
VL: DIVMTQSPLSLPVTPGEPASISCRSSKSLLHSNGYTYLFWFQQRPGQSPRLLIYRMSNLASGVPDRFSGSGSGTDFTLKISRVEAEDVGVYYCMQHLEYPFTFGGGTKVEIKR
In experiment [4], B4 returned a koff of 115. The “Binding affinity cyno TfR1 d 9” value in experiment [5] came to 878 nM. The “Binding affinity cyno TfR1 d 0” value in experiment [6] is 122 nM. Besides, the “Fab binding affinity ELISA” value in experiment [7] was found to be 122 nM.

B5: humanized anti-TfR Fab 3M12 VH4/Vk3 (Fab, V domains shown)
VH: QVQLQESGPGLVKPSQTLSLTCTVTGYSITSGYYWNWIRQPPGKGLEWIGYITFDGANNYNPSLKNRVSISRDTSKNQFSLKLSSVTAEDTATYYCTRSSYDYDVLDYWGQGTTVTVSS
VL: DIQMTQSPSSLSASVGDRVTITCRASQDISNFLNWYQQKPGQPVKLLIYYTSRLHSGVPSRFSGSGSGTDFTLTISSLQPEDFATYYCQQGHTLPYTFGQGTKLEIKR
As to B5, in experiment [5], the “Binding affinity cyno TfR1 d 9” value came out at 16.4 nM. Further, in experiment [8], the Kd is 5.18 nM, the koff is 0.000476 s⁻¹ and the on-rate (kon) was 91900 M⁻¹ s⁻¹. Besides, the “Binding affinity cyno TfR1 d 0” value in experiment [6] turned out to be 2.2 nM. Moreover, in experiment [7], the “Fab binding affinity ELISA” value was determined as 2.2 nM.

A word on the Kd: it is the constant that tells how readily two partners part at equilibrium. The term kon denotes the second-order rate constant of association.
